Molecular target: T1, α4 integrin (CD49d) on JeKo-1 cells (Homo sapiens, endogenous on JeKo-1 cells, UniProt P13612)
T1 construct: integrin alpha-4 (CD49d); also called α4 chain of α4β1 integrin (VLA-4) and α4β7 integrin (LPAM-1); source: endogenous, on JeKo-1 cells
Experiment: flow cytometry on cells; Ntz-01 premixed with natalizumab 1 h on ice in 5% FBS/DPBS/0.05% NaN3, then CD49d+ JeKo-1 cells 20 m on ice; cell-bound natalizumab detected with anti-human IgG4 Fc Alexa Fluor 647
Details: one partner purified

- binding result: binds
B1: Natalizumab (antibody, V domains shown)
VH: QVQLVQSGAEVKKPGASVKVSCKASGFNIKDTYIHWVRQAPGQRLEWMGRIDPANGYTKYDPKFQGRVTITADTSASTAYMELSSLRSEDTAVYYCAREGYYGNYGVYAMDYWGQGTLVTVSS
VL: DIQMTQSPSSLSASVGDRVTITCKTSQDINKYMAWYQQTPGKAPRLLIHYTSALQPGIPSRFSGSGSGRDYTFTISSLQPEDIATYYCLQYDNLWTFGQGTKVEIK
notes: humanized heavy-chain variable region; light chain; IgG4; also called Tysabri; source: obtained from the UCSD Moores Cancer Center Pharmacy

From PMC6160459 (Scientific Reports, 2018)
